The values that follow come from US20100151556A1 (CELLECTIS, published 2010).

For data set [1], the target named is T1, H33 I-CreI mutant (C3 / HprCH3.3 cutter).
T1 chain: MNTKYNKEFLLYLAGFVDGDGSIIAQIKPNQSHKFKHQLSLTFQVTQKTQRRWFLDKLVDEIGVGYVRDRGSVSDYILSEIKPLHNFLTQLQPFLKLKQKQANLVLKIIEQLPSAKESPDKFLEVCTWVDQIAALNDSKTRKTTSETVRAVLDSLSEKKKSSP

Data set [2] deals with the molecule itself. Briefly: size-exclusion chromatography of the purified protein; no self-association. As for the experimental part: The molecular weight of Sc I-CreI in solution was estimated by size-exclusion chromatography of the purified protein. The column fractions were analyzed by SDS-PAGE, and the 31.4 kDa band eluted primarily, which corresponded to a molecular mass of 30 kDa.
(In gel filtration, larger molecules generally elute earlier.)

Data set [3] deals with the molecule itself. Briefly: analytical gel filtration (Superdex 200) of the purified single chain; no self-association. The protocol: Circular dichroism (CD) measurements were performed on a Jasco J-810 spectropolarimeter using a 0.2 cm path length quartz cuvette adm […] protein solutions in phosphate saline buffers. Equilibrium unfolding was induced increasing temperature at a rate of 1° C./min (using a programmable Peltier thermoelectric). Analytical gel filtration chromatography was performed at room temperature with an AKTA FPLC system (GE) using a Superdex 200 10/300GL column in 20 mM sodium phosphate buffer pH 6.0 1 M NaCl. A sample of 100 μL of SC-v3v2G19S constructs at a concentration of 0.3 mg/ml was injected and eluted at a flow rate of 0.2 ml/min. The column was calibrated with blue dextran (excluded volume) and molecular weight markers from 17 to 670 kDa (BioRad).

Numbering of substitutions follows the chain as printed.

B1: X2 I-CreI mutant (C4 cutter) (protein)
chain: T1 chain with Q38A, S40Q, Q44K, R68Q, R70S, D75N
For B1, the “cleavage of the palindromic C4 DNA target on co-expression of X2 and H33 in yeast” value is “but also the C3 and C4 targets”. Besides, the “cleavage of the XPC C1 DNA target on co-expression in yeast” value in data set [1] is recorded as “cleaves the C1 target”.

B2: MA17 I-CreI mutant (HprCH3.4 cutter) (protein)
chain: T1 chain with S32T, Q44R, R68Y, R70S, S72T, D75N, I77N
On to B2, for which the “cleavage of the palindromic HprCH3.3 and HprCH3.4 targets on co-expression of MA17 and H33 in yeast” value is “cleavage of the HprCH3.3 and HprCH3.4 targets”. Also, the “cleavage of the HprCH3 DNA target on co-expression in yeast” value in data set [1] is “resulted in the cleavage of the HprCH3 DNA target”.

B3: H33 I-CreI mutant (C3 / HprCH3.3 cutter) (protein)
chain: T1 chain
Consider B3, for which the “cleavage of the palindromic HprCH3.3 and HprCH3.4 targets on co-expression of MA17 and H33 in yeast” value was “cleavage of the HprCH3.3 and HprCH3.4 targets”.

B4: Single chain I-CreI meganuclease (enzyme)
chain: MANTKYNKEFLLYLAGFVDGDGSIIAQIKPNQSYKFKHQLSLTFQVTQKTQRRWFLDKLVDEIGVGYVRDRGSVSDYILSEIKPLHNFLTQLQAMLERIRLFNMREFLLYLAGFVDGDGSIIAQIKPNQSYKFKHQLSLTFQVTQKTQRRWFLDKLVDEIGVGYVRDRGSVSDYILSEIKPLHNFLTQLQPFLKLKQKQANLVLKIIEQLPSAKESPDKFLEVCTWVDQIAALNDSKTRKTTSETVRAVLDSLSEKKKSSPAAD
notes: Produced 'with or without an histidine tag'; It was purified on a cobalt column; also called Sc I-CreI; scI-CreI
B4: in data set [2], the binding result is recorded as “no binding”.

B5: X2-RM2-H33G19S single chain meganuclease (protein)
chain: MNTKYNKEFLLYLAGFVDGDGSIIAQIKPNQSHKFKHALQLTFKVTQKTQRRWFLDKLVDEIGVGYVQDSGSVSNYILSEIKPLHNFLTQLQPFLKLKQKQANLVLKIIEQLPSAKESPDKFLEVCTWVDQIAALNDSKTRKTTSETVRAVLDSLSEKKKSSPAAGGSDKYNQALSKYNQALSKYNQALSGGGGSNKEFLLYLAGFVDSDGSIIAQIKPNQSHKFKHQLSLAFQVTQKTQRRWFLDKLVDEIGVGYVRDRGSVSDYILSEIKPLHNFLTQLQPFLKLKQKQANLVLKIIWRLPSAKESPDKFLEVCTWVDQIAALNDSKTRKTTSETVRAVLDSLSEKKKSSP
On to B5, for which the “cleavage of the palindromic C3 target (CHO extrachromosomal assay)” value is listed as “greatly reduces the activity toward the C3 target”.

B6: X2-RM2-H33 single chain meganuclease (protein)
chain: B5 chain with S209G
As to B6, the “cleavage of the palindromic C3 target (yeast screen and CHO extrachromosomal assay)” value is recorded as “the strong cleavage of the C3 target with single chain molecules”.

B7: X2-L1-H33 single chain meganuclease (protein)
chain: MNTKYNKEFLLYLAGFVDGDGSIIAQIKPNQSHKFKHALQLTFKVTQKTQRRWFLDKLVDEIGVGYVQDSGSVSNYILSEIKPLHNFLTQLQPFLKLKQKQANLVLKIIEQLPSAKESPDKFLEVCTWVDQIAALNDSKTRKTTSETVRAVLDSLSEKKKSSPAAGGGGSGGGGSGGGGSGGGGSNKEFLLYLAGFVDGDGSIIAQIKPNQSHKFKHQLSLAFQVTQKTQRRWFLDKLVDEIGVGYVRDRGSVSDYILSEIKPLHNFLTQLQPFLKLKQKQANLVLKIIWRLPSAKESPDKFLEVCTWVDQIAALNDSKTRKTTSETVRAVLDSLSEKKKSSP
B7: the “cleavage of the palindromic C3 target (yeast screen and CHO extrachromosomal assay)” value is “the strong cleavage of the C3 target with single chain molecules”.

B8: X2-L1-H33G19S single chain meganuclease (protein)
chain: B7 chain with G199S
Consider B8, for which the “cleavage of the palindromic C3 target (CHO extrachromosomal assay)” value is listed as “greatly reduces the activity toward the C3 target”.

B9: single-chain M3-RM2-M2G19S meganuclease (enzyme)
chain: MANTKYNKEFLLYLAGFVDGDGSIIAQINPNQSSKFKHRLRLTFYVTQKTQRRWFLDKLVDEIGVGYVRDSGSVSQYVLSEIKPLHNFLTQLQPFLKLKQKQANLVLKIIEQLPSAKESPDKFLEVCTWVDQIAALNDSKTRKTTSETVRAVLDSLSGKKKSSPAAGGSDKYNQALSKYNQALSKYNQALSGGGGSNKEFLLYLAGFVDSDGSIIAQIKPRQSNKFKHQLSLTFAVTQKTQRRWFLDKLVDEIGVGYVYDSGSVSDYRLSEIKPLHNFLTQLQPFLKLKQKQANLVLKIIEQLPSAKESPDKFLEVCTWVDQIAALNDSKTRKTTSETVRAVLDSLSEKKKSSP
notes: also called SC-v3v2G19S; not shown: His6 tag at the C-terminus
In the case of B9, in data set [3], the binding result is listed as “no binding”.

B10: M2-RM2-M3 RAG1 single chain meganuclease (protein)
chain: MNTKYNKEFLLYLAGFVDGDGSIIAQIKPRQSNKFKHQLSLTFAVTQKTQRRWFLDKLVDEIGVGYVYDSGSVSDYRLSEIKPLHNFLTQLQPFLKLKQKQANLVLKIIEQLPSAKESPDKFLEVCTWVDQIAALNDSKTRKTTSETVRAVLDSLSEKKKSSPAAGGSDKYNQALSKYNQALSKYNQALSGGGGSNKEFLLYLAGFVDGDGSIIAQINPNQSSKFKHRLRLTFYVTQKTQRRWFLDKLVDEIGVGYVRDSGSVSQYVLSEIKPLHNFLTQLQPFLKLKQKQANLVLKIIEQLPSAKESPDKFLEVCTWVDQIAALNDSKTRKTTSETVRAVLDSLSEKKKSSP
Take B10: the “cleavage of the palindromic RAG1.10.2 target (yeast screen)” value is “M2-RM2-M3 was found to cleave also RAG1.10.2”.

B11: M2G19S-RM2-M3 RAG1 single chain meganuclease (protein)
chain: B10 chain with G19S
In the case of B11, the “cleavage of the palindromic RAG1.10.2 target (yeast screen)” value is given as “abolishes RAG1.10.2 cleavage”.
